These results are taken from the Immune Epitope Database (IEDB).

The target in one assay is HLA-B*44:02. Kind of assay: IEDB peptide-MHC binding, purified MHC/competitive/radioactivity; filed as Kd, often an IC50 or EC50 that approximates it; ≥ and ≤ were set here for values at or beyond the usual limits of such assays.
A further assay deals with HLA-B*44:03. Described as above.
The next assay deals with HLA-B*40:01. Kind of assay: IEDB peptide-MHC binding, purified MHC/direct/fluorescence; filed as Kd, often an IC50 or EC50 that approximates it; ≥ and ≤ were set here for values at or beyond the usual limits of such assays.
The target of the next assay is HLA-A*26:01. Kind of assay: IEDB peptide-MHC binding, purified MHC/competitive/radioactivity; filed as Kd, often an IC50 or EC50 that approximates it; ≥ and ≤ were set here for values at or beyond the usual limits of such assays.
The target of another assay is HLA-A*68:01. The assay is described as above. The conditions noted are these: source organism: SARS coronavirus Tor2.
A further assay addresses HLA-A*01:01. The description is as above.
For the next assay, the target named is HLA-A*24:02. Described as above.
In the next assay the target is HLA-A*23:01. Described as above.
For another assay, the target named is HLA-A*29:02. Described as above.
For the next assay, the target named is HLA-A*11:01. Described as above. The conditions noted are these: source organism: SARS coronavirus Tor2.
Another assay deals with HLA-A*30:02. The description is as above.
For a further assay, the target named is HLA-A*31:01. The assay is described as above. The conditions noted are these: source organism: SARS coronavirus Tor2.
For another assay, the target named is HLA-A*33:01. The description is as above. As to conditions: source organism: SARS coronavirus Tor2.
In a further assay the target is HLA-A*32:01. The assay is described as above.
For a further assay, the target named is HLA-B*53:01. The assay is described as above.
The next assay addresses HLA-A*02:02. The description is as above. As to conditions: source organism: Vaccinia virus WR.
Another assay concerns the target HLA-A*02:03. The description is as above. As to conditions: source organism: Vaccinia virus WR.
A further assay addresses HLA-A*02:06. The assay is described as above. The conditions noted are these: source organism: Vaccinia virus WR.
The mark [1] stands for this setting: source organism: Dengue virus 1 Brazil/97-11/1997.
The mark [2] stands for this setting: source organism: Dengue virus 2 Jamaica/1409/1983.
The mark [3] stands for this setting: source organism: Dengue virus 3 Martinique/1243/1999.
Setting [4] is: source organism: SARS coronavirus Tor2.
Where [5] appears, read: source organism: Dengue virus 4 Philippines/H241/1956.
[6] abbreviates: source organism: Vaccinia virus WR.
The mark [7] stands for this setting: source organism: Triticum aestivum.

Usually Kd stands for the free concentration of one partner at which half of the binding sites on the other are occupied at equilibrium, for simple one-to-one binding.

For the sequence ADSGCVINW, in the assay with HLA-B*44:02 (setting [1]), the equilibrium dissociation constant (Kd) amounted to 70.7 nM.

Turning to AEAIFKLTY, the Kd in the assay with HLA-B*44:03 (setting [2]) amounted to 34.7 nM; in the assay with HLA-B*44:02 (setting [2]) it was 3.67 nM.

As to AEIPLQWIA, the Kd turned out to be 634 nM with HLA-B*44:03 (setting [3]) and 68.6 nM in the assay with HLA-B*44:02 (setting [3]).

In the case of AELEDGAYRI, the equilibrium dissociation constant (Kd) amounted to 17.9 nM with HLA-B*44:03 (setting [2]) and 16 nM in the assay with HLA-B*44:02 (setting [2]).

In the case of AEPIDIQTW, in the assay with HLA-B*44:03 (source organism: Homo sapiens), the dissociation constant (Kd) was found to be 66 nM.

Consider AEQIVLGVI, for which the Kd with HLA-B*40:01 (source organism: Mycobacterium tuberculosis variant bovis) amounted to 61.1 nM.

As to AERVLDWLEK, the Kd with HLA-B*44:02 (setting [1]) was 3270 nM.

For the sequence AMYADDTAGW, the Kd with HLA-B*44:02 (setting [2]) turned out to be 124 nM.

As to ATSRTLSYY, the dissociation constant (Kd) with HLA-A*26:01 (setting [4]) is 1940 nM; with HLA-A*68:01, 1200 nM; with HLA-A*01:01 (setting [4]) it was 4.81 nM; in the assay with HLA-A*24:02 (setting [4]), not below 35700 nM; in the assay with HLA-A*23:01 (setting [4]), not below 77800 nM; with HLA-A*29:02 (setting [4]) it was 12 nM. Besides, the equilibrium dissociation constant (Kd) is 28.5 nM with HLA-A*11:01, 1.03 nM with HLA-A*30:02 (setting [4]), 3880 nM with HLA-A*31:01 and not below 77700 nM in the assay with HLA-A*33:01.

Regarding AVLTGGVTL, the Kd in the assay with HLA-A*32:01 (setting [1]) came out at 6690 nM.

Consider CVIASSGMLW, for which the Kd with HLA-A*26:01 (setting [3]) worked out at 1220 nM; with HLA-B*53:01 (setting [3]), 22.2 nM.

As to EEHKETWHY, the equilibrium dissociation constant (Kd) with HLA-B*44:03 (setting [5]) amounted to 16.9 nM; in the assay with HLA-B*44:02 (setting [5]) it was 203 nM.

In the case of EEPVPMSTY, the Kd with HLA-B*44:02 (setting [3]) is 360 nM.

On to EEREIPERSW, for which the Kd came out at 242 nM in the assay with HLA-B*44:03 (setting [2]) and 66.5 nM with HLA-B*44:02 (setting [2]).

For the sequence GPLTTLWEGS, in the assay with HLA-A*32:01 (setting [1]), the equilibrium dissociation constant (Kd) amounted to 18200 nM.

GSAKLRWFVE: the Kd in the assay with HLA-A*32:01 (setting [2]) was not below 22200 nM.

For IEKTKTDFGF, the Kd with HLA-B*44:02 (setting [5]) is 1730 nM.

For ISLFYTFAI, the Kd with HLA-A*32:01 (setting [6]) was found to be 0.567 nM.

For ITLVVISVI, the dissociation constant (Kd) was not below 35300 nM with HLA-A*32:01 (setting [6]), 15100 nM with HLA-A*02:02, 1810 nM in the assay with HLA-A*02:03 and 1030 nM with HLA-A*02:06.

Regarding KLFYVYYNL, the dissociation constant (Kd) in the assay with HLA-A*32:01 (setting [6]) stood at 0.344 nM.

Consider KTTAKEVAL, for which the dissociation constant Kd with HLA-A*32:01 (setting [5]) is not below 21100 nM.

In the case of LALREFKEF, in the assay with HLA-B*53:01 (setting [1]), the Kd was determined as 1730 nM.

As for LPMTVAAMG, the Kd with HLA-B*53:01 (source organism: Dengue virus 3 Sri Lanka/1266/2000) was 3540 nM.

Consider LTGTFVTAF, for which, in the assay with HLA-A*32:01 (setting [6]), the Kd was found to be 8.81 nM.

With LVAEMDGIQY, the Kd with HLA-A*26:01 (setting [4]) is 346 nM; with HLA-A*01:01 (setting [4]), 246 nM; in the assay with HLA-A*24:02 (setting [4]), not below 70300 nM; with HLA-A*23:01 (setting [4]), not below 70000 nM; with HLA-A*29:02 (setting [4]) it was 103 nM; in the assay with HLA-A*30:02 (setting [4]) it was 102 nM.

Consider LYDANYFVCW, for which the Kd is 9640 nM with HLA-A*26:01 (setting [4]); 1130 nM with HLA-A*01:01 (setting [4]); 55.4 nM with HLA-A*24:02 (setting [4]); 24.5 nM with HLA-A*23:01 (setting [4]); 1440 nM with HLA-A*29:02 (setting [4]); 13400 nM in the assay with HLA-A*30:02 (setting [4]).

Consider MFSPIVPFW, for which the Kd was not below 77900 nM with HLA-A*26:01 (setting [4]); not below 78100 nM with HLA-A*01:01 (setting [4]); 111 nM in the assay with HLA-A*24:02 (setting [4]); 29.2 nM with HLA-A*23:01 (setting [4]); 95.1 nM with HLA-A*29:02 (setting [4]); not below 30300 nM in the assay with HLA-A*30:02 (setting [4]).

Consider MGEDGCWYGM, for which, in the assay with HLA-A*32:01 (setting [3]), the Kd is not below 36400 nM.

With NEGIMAIGI, the Kd in the assay with HLA-B*44:03 (setting [1]) was 109 nM; in the assay with HLA-B*44:02 (setting [1]), 18.8 nM.

Sequence NEIRALMAL registered an equilibrium dissociation constant (Kd) with HLA-B*40:01 (source organism: Mycobacterium tuberculosis) of 18.2 nM.

Take NELNYILWE: the Kd with HLA-B*44:03 (setting [3]) amounted to 270 nM.

With NESDPEGALW, the dissociation constant Kd in the assay with HLA-B*44:03 (setting [1]) stood at 134 nM; in the assay with HLA-B*44:02 (setting [1]) it was 26.6 nM.

As for NVAYGAVSF, in the assay with HLA-A*32:01 (setting [6]), the Kd amounted to 136 nM.

PYRVVVLSF: the dissociation constant Kd in the assay with HLA-A*26:01 (setting [4]) was 1040 nM; with HLA-A*01:01 (setting [4]) it was 1480 nM; with HLA-A*24:02 (setting [4]) it was 100 nM; in the assay with HLA-A*23:01 (setting [4]) it was 20.8 nM; with HLA-A*29:02 (setting [4]), 11500 nM; with HLA-A*30:02 (setting [4]), not below 93800 nM.

Take QFPGQQQPF: the dissociation constant Kd with HLA-A*26:01 (setting [7]) is not below 25900 nM; with HLA-A*01:01 (setting [7]) it was not below 48900 nM; with HLA-A*24:02 (setting [7]) it was 676 nM; with HLA-A*23:01 (setting [7]), 19800 nM; with HLA-A*29:02 (setting [7]), 1530 nM; with HLA-A*30:02 (setting [7]), 185 nM.
